The results in this text go back to patent US8329882B2, “Genetic control of mammalian cells with synthetic RNA regulatory systems” (California Institute of Technology, priority 2009, dated 2012).

For one data set, the system named is JAK-STAT pathway. Nature of the data set: Western blot analysis of phosphorylated STAT5 levels. The data set is classed as cell-based, mouse. The settings on record: CffLuc cell line lacking the ribozyme switch system; 500 μM theophylline. As for the experimental part:
Additional assays on a clonal cell line harboring three copies of L2bulge9 (clone 1264-48) were performed to verify the mechanism of growth regulation and examine the dynamic behavior of the regulatory system to variations in theophylline availability. Cell cultures were grown for one week in the presence of 500 μM theophylline and continued for a second week in the absence of theophylline. Theophylline was reintroduced for another four days at the end of the study. […] CD19 levels returned to basal levels within 48 hours of theophylline removal from the culture. The theophylline-responsive increase in CD19 expression was repeated upon reintroduction of theophylline to culture media. IL-15 expression patterns were verified at the transcript level through quantitative RT-PCR (Example 21, FIG. 8). […]
Lysate samples were thawed on ice and a standard Bradford assay using Protein Assay Dye (Bio-Rad) was performed with a BSA standard to determine protein concentrations. […] Membranes stained for […] and p-STAT5 were washed 4 times with 100 ml TTBS and once with 100 ml TBS before fluorescent images were acquired and quantified with the Odyssey Infrared Imaging System (Li-Cor). Integrated band intensity was calculated with the Odyssey system using blank gel areas surrounding each band for background subtraction. […]
A general note: A western blot detects proteins with antibodies after separation by electrophoresis.

Data set [1] has as its system CTLL-2 cells. The settings on record: 100 U/ml IL-2 every 48 hours; cell count every 24 hours.
Experimental: Cells were cultured in media containing the indicated concentration of (a) theophylline and (b) tetracycline.
In the experiment shown in FIG. 19, 100 U/ml of IL-2 was fed to all cultures every 48 hours, and cell count was obtained every 24 hours by flow cytometry.
Data set [2] has as its system CTLL-2 cells. Nature of the data set: Transient transfection in CTLL-2 cells, viability and fluorescence by flow cytometry. It counts as cell-based, mouse. (In flow cytometry, cells or beads pass a laser one at a time.)
Data set [3] concerns primary human TCM cells. Nature of the data set: TCM cell CD19 expression time-course study. It counts as cell-based. Conditions: 500 μM theophylline, five days; compared to the inactive ribozyme control; three copies of switch. How it is done:
(§1) Since short production timeline and streamlined processing may be important in clinical applications, characterization studies of TCM cells were performed on bulk transduced, unsorted populations to examine the robustness of the regulatory system in the scenario in which no population refinement was performed. Transduced cells were cultured in the presence and absence of 500 μM theophylline for five days, with daily monitoring of CD19 levels and cell viability by staining with CD19 antibody, annexin V, and SYTOX AAD dead cell stain. […] TCM cells stably expressing the cd19-t2a-il15-L2bulge9(3×) construct were cultured in the presence and absence of 500 μM theophylline. […] Values reported represent mean±s.d. from triplicate samples.
On day 12 post stimulation, each cell line was used to seed four 25-ml cultures at 0.2×10^6 cells/ml. 500 μM theophylline was added to 2 flasks of each cell line, and no IL-2 or IL-15 was fed to any flask. Two aliquots from each culture were sampled every 24 hours for staining with PE-conjugated CD19 antibody (Beckman Coulter; Fullerton, Calif.). Fluorescence data were obtained with a Quanta Cell Lab Flow Cytometer using a 488-nm laser and a 575/30-nm band-pass filter.

For data set [4], the system named is primary human TCM cells. The data set can be described thus: TCM cell apoptosis time-course study (annexin V / SYTOX AAD / CD19 staining). The data set is classed as cell-based. The settings on record: 500 μM theophylline, five days, compared to the inactive ribozyme control. How it is done:
as §1
On day 12 post stimulation, each cell line was washed twice with HBSS and used to seed six 25-ml cultures at 0.45×10^6 cells/ml. […] Fluorescence data were obtained using a Quanta Cell Lab Flow Cytometer with both a 488-nm laser and an UV arc lamp. Pacific Blue, PE, and SYTOX AAD were detected through 465/30-nm band pass, 575/30-nm band pass, and 610-nm long pass filters, respectively, Only SYTOX AAD-cells were included in data analyses. The population of live CD19+ cells was determined by gating for annexin V−/PE+ cells and the population of apoptotic CD19+ cells was determined by gating for annexin V+/PE+ cells.

Another data set has as its system T-cell proliferation. Nature of the data set: In vivo T-cell proliferation study with biophotonic imaging of luciferase signal flux. Also noted: species or system NOD/scid-IL2(ko) mice. As for the experimental part:
To verify in vivo functionality of the T-cell proliferation regulatory system, we examined several clonal cell lines for theophylline-dependent growth in mice over time. Select clones were encased in a hydrogel matrix that contained either 0 μM or 500 μM theophylline and injected into the flanks of NOD/SCID-γc^−/− mice. […] Flux measurements over a 9-day period indicate an average of 40% increase in the growth rate of clone 1264-48 in the presence of […] (n1=4, n2=6, P=0.038 by Mann-Whitney U test).
Cells were harvested by centrifugation at 1200 rpm at 4° C. for 10 min, washed twice with PBS, resuspended in PBS at a concentration of 2×10^6 cells/ml, and split into two 50 μl aliquots. […] In vivo growth of the injected cells was monitored by biophotonic imaging. […]
Animals received intraperitoneal (i.p.) injections of 4.29 mg per mouse of freshly prepared luciferin substrate (Caliper Life Sciences; Hopkinton, Mass.) suspended in 150 μl of PBS. […] Luciferase activity was analyzed through Living Image Software 3.1 from Xenogen to quantify tumor region flux (photons per second).
Statistical analysis was performed on growth rate data using the Mann-Whitney U test to calculate two-tailed P values. The doubling time of injected cells was calculated based on the total luciferase signal flux data collected over the course of each in vivo study. […]

Data set [5] relates to CTLL-2 cells. Nature of the data set: In vitro growth assay for stable CTLL-2 cell lines. The data set is classed as cell-based, mouse. The settings on record: 500 μM theophylline, without exogenous IL-2. How it is done:
Growth behavior of individual clones was characterized by culturing under various theophylline concentrations. […] In the experiment shown in FIG. 7, the cell lines were cultured at various theophylline concentrations, and cell growth was monitored by counting viable cells. Clones indicated as 1261-xx stably expressed cd19-tk-il15-L2bulge9(1x). Clone 1264-xx stably expressed cd19-tk-il15-L2bulge9(3×). Growth behaviors differ from clone to clone, as would be expected from non-site-specific integration of the transgene into the host chromosomes. Theophylline-responsive increase in cell growth is evident in fifteen of the sixteen tested clones, and the growth elevation is statistically significant for the sample set (P=0.0150, 0.0011, 0.0013 for 100 μM, 250 μM, and 400 μM, respectively, by Whitney-Mann U test).
CffLuc-pIL15 clones were cultured under regular conditions (RPMI 1640 media supplemented with 100 U/ml IL-2 every 48 hours, 0.2 mg/ml zeocin, no theophylline), washed twice with HBSS, and split into 5 identical aliquots in 6-well plates at approximately 0.01×10^6 cells/ml (4 ml/well). […] Cell density was calculated by dividing the number of detected live cells by the volume analyzed on the flow cytometer. […]

“Also recorded” adds a separate entry of the source.

For the molecule `Cn1c(=O)c2[nH]cnc2n(C)c1=O` [theophylline], the “nonspecific activation of JAK-STAT pathway” value in the data set on JAK-STAT pathway was “did not nonspecifically activate the JAK-STAT pathway”. Further, the “toxicity to CTLL-2 cells” value in the data set with CTLL-2 cells [1] is “some toxicity”.
`CN(C)[C@@H]1C(O)=C(C(N)=O)C(=O)[C@@]2(O)C(O)=C3C(=O)c4c(O)cccc4[C@@](C)(O)[C@H]3C[C@@H]12` [tetracycline]: the “toxicity to CTLL-2 cells” value with CTLL-2 cells [1] was “some toxicity”.

B1: L2bulge18tc: tetracycline-responsive ribozyme switch, SEQ ID NO: 29 (nucleic acid)
chain: CTCGAGGCGATCGCAAACAAACAAAGCTGTCACCGGATGTGCTTTCCGGTCTGATGAGTCCGTTGTCCAAAACATACCAGATTTCGATCTGGAGAGGTGAAGAATTCGACCACCTGGACGAGGACGGAGGACGAAACAGCAAAAAGAAAAATAAAAATTAATTAATCTTGGGCCC
modifications: L2bulge18tc
With B1, the “switch activity (fluorescence)” value in the data set on CTLL-2 cells [2] (tetracycline input, single- and multiple-copy switch systems) is “tetracycline-responsive ON switch activity”.

B2: L2bulge9: theophylline-responsive ribozyme switch, SEQ ID NO: 28 (nucleic acid)
chain: CTCGAGGCGATCGCAAACAAACAAAGCTGTCACCGGATGTGCTTTCCGGTCTGATGAGTCCGTTGTCCAATACCAGCATCGTCTTGATGCCCTTGGCAGTGGATGGGGACGGAGGACGAAACAGCAAAAAGAAAAATAAAAATTTTTTTTTTAATTAATCTTGGGCCC
modifications: L2bulge9
With B2, the “increase in CD19 expression levels” value with primary human TCM cells [3] is given as “up to 15%”. Besides, the “reduction in the apoptotic cell population” value in the data set on primary human TCM cells [4] (apoptotic CD19+) is on record as “up to 54%”. The “increase in the live cell population” value in the data set on primary human TCM cells [4] (live CD19+) is “up to 24%”. Also, the “switch control over cell viability and proliferation” value in the data set on CTLL-2 cells [2] (cd19-tk-t2a-il15 transgene, theophylline) is “ON switch control over cell viability and proliferation”. Also, the “basal knockdown (viability)” value with CTLL-2 cells [2] (three and four copies of switch, egfp-t2a-il2, viability comparable to No IL-2 Control and sTRSV Ribozyme) is “Stringent knockdown”.

B3: inactive ribozyme: inactive, scrambled hammerhead ribozyme lacking an aptamer, SEQ ID NO: 30; cells expressing it serve as positive control (nucleic acid)
chain: CTCGAGGCGATCGCAAACAAACAAAGCTGTCACCGGATGTGCTTTCCGGTACGTGAGGTCCGTGAGGACAGAACAGCAAAAAGAAAAATAAAAATTTTTTTTTTAATTAATCTTGGGCCC
In the case of B3, in the data set with T-cell proliferation (500 μM theophylline vs none, 9-day period), the “change in in vivo growth rate in response to theophylline addition” value is “did not show statistically significant changes; also recorded: no statistically significant difference”. For the same molecule, the “in vivo T-cell proliferation” value in the data set with T-cell proliferation (regardless of theophylline availability (0 or 500 μM), 14-day study) is “Uncontrolled T-cell proliferation”. Also, the “growth rate in the presence of theophylline” value in the data set with CTLL-2 cells [5] is on record as “decreased growth rate”.
